Test in all cases: cell-based or functional assay
In one experiment the target is human glucagon receptor (human, UniProt P47871 26-477).
Experiment [1] has as its target human glucagon-like peptide-1 (GLP-1) receptor (human, UniProt P43220 24-463).
Experiment [2] deals with T1, human glucose-dependent insulinotropic polypeptide (GIP) receptor (human, UniProt P48546 22-466).
T1 sequence (looked up): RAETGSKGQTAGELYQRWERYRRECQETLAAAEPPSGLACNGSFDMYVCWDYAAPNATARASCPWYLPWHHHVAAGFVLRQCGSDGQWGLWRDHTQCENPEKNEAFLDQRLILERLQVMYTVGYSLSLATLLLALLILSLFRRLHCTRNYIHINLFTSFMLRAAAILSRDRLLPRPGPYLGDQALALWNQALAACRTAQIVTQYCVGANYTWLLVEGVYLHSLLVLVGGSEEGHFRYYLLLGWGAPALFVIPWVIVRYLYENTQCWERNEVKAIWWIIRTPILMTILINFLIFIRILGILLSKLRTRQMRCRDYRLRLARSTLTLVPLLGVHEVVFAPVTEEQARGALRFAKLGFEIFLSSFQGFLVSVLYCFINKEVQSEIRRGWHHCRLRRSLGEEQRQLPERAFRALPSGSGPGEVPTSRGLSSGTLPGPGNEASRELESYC

*1 amine or outer side, *2 acyl side, *3 side chain or, on linkers, in order; H or OH if unused. Where no end group is shown, it is not given here. Side-chain parts run from the residue outwards. [ ]: non-standard residue; d: D form. The star is where a group is joined. αMePhe(2-F) = C[C@](N)(Cc1ccccc1F)C(=O)O; γGlu = O=C(O)[C@H](CCC(=O)[*:2])N[*:1]; C14 diacid = O=C(O)CCCCCCCCCCCCC(=O)*; εLys = N[C@@H](CCCCN[*:1])C(=O)[*:2]; αMeY = C[C@](N)(Cc1ccc(O)cc1)C(=O)O; αMeL = CC(C)C[C@](C)(N)C(=O)O; Orn = NCCC[C@H](N)C(=O)O; AEEA = NCCOCCOCC(=O)O; Aib = CC(C)(N)C(=O)O Where only a bound is given, the exact number is not on record here.

B1: Example 289 (peptide)
peptide: YXEGTXTSDXSIXLDXKAQXKFIXXLIEGGPSSGAPPPS
modifications: Aib2, αMeF(2F)6, OMeY10, αMeL13, Orn16, K17(Z), Aib20, K21(Z), D-Glu24, αMeY25, C-terminal NH2; Z = AEEA2-(γ-Glu)-CO-(CH2)10-CH3
Consider B1, for which the “cAMP EC50” value with human glucagon receptor is over 9950 nM; in experiment [1], 0.731 nM; in experiment [2] it was 0.017 nM.

B2: Example 157 (peptide)
peptide: YXEGTXTSDXSIXLDXKAQXXFIXXLIEGGKSSGAPPPS
modifications: Aib2, αMeF(2F)6, 4Pal10, αMeL13, Orn16, K17(Z), Aib20, 4Pal21, D-Glu24, αMeY25, K31(Z), C-terminal NH2; Z = AEEA2-(γ-Glu)-CO-(CH2)12-CO2H
In the case of B2, the results for the “cAMP EC50” value (with human glucagon receptor; in experiment [1]; in experiment [2]) were over 9950 nM, 0.94 nM and 0.0286 nM, respectively. Further, the “cAMP Emax” value in experiment [2] turned out to be 98.8%.

B3: Example 156 (peptide)
peptide: YXEGTXTSDXSIXLDXKAQXEFIXXLIEGGKSSGAPPPS
modifications: Aib2, αMeF(2F)6, 4Pal10, αMeL13, Orn16, K17(Z), 4Pal20, D-Glu24, αMeY25, K31(Z), C-terminal NH2; Z = AEEA2-(γ-Glu)-CO-(CH2)12-CO2H
Regarding B3, the “cAMP EC50” value in the experiment with human glucagon receptor was over 9950 nM; in experiment [1] it was 4.6 nM; in experiment [2], 0.0422 nM.

B4: Example 290 (peptide)
peptide: YXEGTXTSDXSIXLDXKAQXEFIXXLIKGGPSSGAPPPS
modifications: Aib2, αMeF(2F)6, OMeY10, αMeL13, Orn16, K17(Z), Aib20, D-Glu24, αMeY25, K28(Z), C-terminal NH2; Z = AEEA2-(γ-Glu)-CO-(CH2)10-CH3
For B4, the “cAMP EC50” value is over 9950 nM with human glucagon receptor, 0.324 nM in experiment [1] and 0.0188 nM in experiment [2].

B5: Example 158 (peptide)
peptide: YXEGTXTSDXSIXLDXKAQXEFIEXLIEGGKSSGAPPPS
modifications: Aib2, αMeF(2F)6, 4Pal10, αMeL13, Orn16, K17(Z), Aib20, αMeY25, K31(Z), C-terminal NH2; Z = AEEA2-(γ-Glu)-CO-(CH2)12-CO2H
As for B5, the figures for the “cAMP EC50” value (with human glucagon receptor; in experiment [1]; in experiment [2]) were over 9950 nM, 0.448 nM and 0.0204 nM, respectively. Also, the “cAMP Emax” value came to 87.2% in experiment [1] and 93.4% in experiment [2].

B6: Example 159 (peptide)
peptide: YXEGTXTSDXSIXLDXKAQXEFIEXLIEGGKSSGAPPPS
modifications: Aib2, αMeF(2F)6, 4Pal10, αMeL13, Orn16, K17(Z), Aib20, αMeF25, K31(Z), C-terminal NH2; Z = AEEA2-(γ-Glu)-CO-(CH2)12-CO2H
Regarding B6, the “cAMP EC50” value with human glucagon receptor is over 9950 nM; in experiment [1], 0.558 nM; in experiment [2], 0.0198 nM. For the same molecule, the “cAMP Emax” value in experiment [1] was determined as 89.4%; in experiment [2], 95.3%.

B7: Example 160 (peptide)
peptide: YXEGTXTSDXSIXLDXKAQXEFIKXLIEGGPSSGAPPPS
modifications: Aib2, αMeF(2F)6, 4Pal10, αMeL13, Orn16, K17(Z), Aib20, K24(Z), αMeY25, C-terminal NH2; Z = AEEA2-(εK)-CO-(CH2)12-CO2H
Consider B7, for which the “cAMP EC50” value with human glucagon receptor is over 9950 nM; in experiment [1] it was 0.228 nM; in experiment [2] it was 0.0197 nM.

B8: Example 161 (peptide)
peptide: YXEGTXTSDXSIXLDXKAQXEFIKXLIEGGPSSGAPPPS
modifications: Aib2, aMeF(2F)6, 4Pal10, aMeL13, Orn16, K17(Z), Aib20, K24(Z), αMeY25, C-terminal NH2; Z = eK-gE-C14_OH (so in the source)
As for B8, the “cAMP EC50” value is over 9950 nM with human glucagon receptor, 0.203 nM in experiment [1] and 0.0207 nM in experiment [2].

B9: Example 162 (peptide)
peptide: YXEGTXTSDXSIXLDXKAQXEFIKXLIEGGPSSGAPPPS
modifications: Aib2, αMeF(2F)6, 4Pal10, αMeL13, Orn16, K17(Z), Aib20, K24(Z), αMeY25, C-terminal NH2; Z = (εK)-(εK)-(γ-Glu)-CO-(CH2)12-CO2H
Turning to B9, the “cAMP EC50” value is over 9950 nM in the experiment with human glucagon receptor, 0.327 nM in experiment [1] and 0.022 nM in experiment [2]. The “cAMP Emax” value in experiment [2] amounted to 89.7%.

For Y[Aib]EGT[αMePhe(2-F)]TSDV[Aib]I[αMeL]LD[Orn]K([εLys-γGlu-C14 diacid])AQ[Aib]EFIK([εLys-γGlu-C14 diacid])[αMeY]LIEGGPSSGAPPPS-NH2 [Example 167], the “cAMP EC50” value is over 9950 nM with human glucagon receptor, 0.217 nM in experiment [1] and 0.0534 nM in experiment [2]. Moreover, the “cAMP Emax” value in experiment [1] came out at 91.4%; in experiment [2], 99.5%.

For Y[Aib]EGT[αMePhe(2-F)]TSDV[Aib]I[αMeL]LD[Orn]K([AEEA-AEEA-εLys-C14 diacid])AQ[Aib]EFIK([AEEA-AEEA-εLys-C14 diacid])[αMeY]LIEGGPSSGAPPPS-NH2 [Example 166], the results for the “cAMP EC50” value (with human glucagon receptor; in experiment [1]; in experiment [2]) were over 9950 nM, 0.192 nM and 0.0774 nM, respectively. Moreover, the “cAMP Emax” value in experiment [1] came to 90.3%; in experiment [2], 97%.
